Experimental data from US20250152742A1, “COMPOSITIONS AND METHODS FOR NEUROLOGICAL DISEASES” (Trames Bio, Inc., priority 2022, published 2025).
Substitutions are numbered along the chain they refer to. In names and notes the source's numbering stands.

System: engineered chimeric receptor SEQ ID NO: 33 and its mutants (human α7-nAChR ligand binding domain / human GlyRα1 ion pore domain) in Lenti-X 293T cells
Assay: YFP fluorescence quenching anion reporter plate reader assay (percent quench, EC50)
Type: cell-based
Conditions: for YFP fluorescence quenching using CNL001 (percent quench): receptor named in row; for YFP fluorescence quenching using Facinicline, 30 nM fac: ligand Facinicline 30 nM; for YFP fluorescence quenching using Facinicline, 300 nM fac: ligand Facinicline 300 nM; for YFP fluorescence quenching using Facinicline, 30 uM fac: ligand Facinicline 30 uM; for YFP fluorescence quenching using TC-6987, 1 uM tc6987: ligand TC-6987 1 uM; for YFP fluorescence quenching using TC-6987, 10 uM tc6987: ligand TC-6987 10 uM; for YFP fluorescence quenching using TC-6987, 500 uM tc6987: ligand TC-6987 500 uM; for YFP fluorescence quenching using Varenicline, 3 nM var: ligand Varenicline 3 nM; for YFP fluorescence quenching using Varenicline, 30 nM var: ligand Varenicline 30 nM; for YFP fluorescence quenching using Varenicline, 300 nM var: ligand Varenicline 300 nM; for YFP fluorescence quenching using Varenicline, 500 nM var: ligand Varenicline 500 nM; for YFP fluorescence quenching using Varenicline, 1 uM var: ligand Varenicline 1 uM
Outline: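 Percent quench compares mean YFP signal over the final 10 s with the 15 s baseline before ligand, added in iodide-containing extracellular solution (pH 7.2). Cells were LX293T carrying a YFP anion reporter, transiently transfected with the channel construct; plates were preincubated 30 min at 37 °C.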

[1] = 1 nM CNL001, first column so headed
[2] = 1 nM CNL001, second column so headed
[3] = 3 nM brd (TC-5619/Bradanicline)
[4] = 10 nM CNL001, first column so headed
[5] = 10 nM CNL001, second column so headed
[6] = 30 nM brd (TC-5619/Bradanicline)
[7] = 50 nM CNL001, first column so headed
[8] = 50 nM CNL001, second column so headed
[9] = 100 nM CNL001, first column so headed
[10] = 100 nM CNL001, second column so headed
[11] = 300 nM brd (TC-5619/Bradanicline)
[12] = 1 uM CNL001, first column so headed
[13] = 1 uM CNL001, second column so headed

B1: CODA407: engineered receptor: Y210F in SEQ ID NO: 33 (protein)
chain: MRCSPGGVWLALAASLLHVSLQGEFQRKLYKELVKNYNPLERPVANDSQPLTVYFSLSLLQIMDVDEKNQVLTTNIWLQMSWTDHYLQWNVSEYPGVKTVRFPDGQIWKPDILLYNSADERFDATFHTNVLVNSSGHCQYLPPGIFKSSCPMDLKNFPMDVQTCKLKFGSWSYGGWSLDLQMQEADISGYIPNGEWDLVGIPGKRSERFFECCKEPYPDVTFTVTMRRRMGYYLIQMYIPSLLIVILSWISFWINMDAAPARVGLGITTVLTMTTQSSGSRASLPKVSYVKAIDIWMAVCLLFVFSALLEYAAVNFVSRQHKELLRFRRKRRHHKSPMLNLFQEDEAGEGRFNFSAYGMGPACLQAKDGISVKGANNSNTTNPPPAPSKSPEEMRKLFIQRAKKIDKISRIGFPMAFLIFNMFYWIIYKIVRREDVHNQ
modifications: synthetic sequence of chimeric LGIC
[1]
  YFP fluorescence quenching using CNL001 (percent quench): −10.845%
[2]
  YFP fluorescence quenching using CNL001 (percent quench): −2.629%
[3]
  YFP fluorescence quenching using TC-5619/Bradanicline (percent quench): −0.53%
[4]
  YFP fluorescence quenching using CNL001 (percent quench): 4.66%
[5]
  YFP fluorescence quenching using CNL001 (percent quench): 12.246%
[6]
  YFP fluorescence quenching using TC-5619/Bradanicline (percent quench): 8.71%
[7]
  YFP fluorescence quenching using CNL001 (percent quench): 29.307%
[8]
  YFP fluorescence quenching using CNL001 (percent quench): 41.78%
50 nM abt (ABT-126)
  YFP fluorescence quenching using ABT-126 (percent quench): −13.07%
[9]
  YFP fluorescence quenching using CNL001 (percent quench): 50.654%
[10]
  YFP fluorescence quenching using CNL001 (percent quench): 62.054%
100 nM CNL002
  YFP fluorescence quenching (percent quench): −12.47%
100 nM abt (ABT-126)
  YFP fluorescence quenching using ABT-126 (percent quench): 0.1%
100 nM azd0328
  YFP fluorescence quenching using AZD-0328 (percent quench): 0.85%
300 nM abt (ABT-126)
  YFP fluorescence quenching using ABT-126 (percent quench): 5.97%
300 nM azd0328
  YFP fluorescence quenching using AZD-0328 (percent quench): 1.25%
[11]
  YFP fluorescence quenching using TC-5619/Bradanicline (percent quench): 76.26%
[12]
  YFP fluorescence quenching using CNL001 (percent quench): 81.742%
[13]
  YFP fluorescence quenching using CNL001 (percent quench): 81.304%
1 uM CNL002
  YFP fluorescence quenching (percent quench): −3.93%
1 uM abt (ABT-126)
  YFP fluorescence quenching using ABT-126 (percent quench): 50.23%
10 uM ach (acetylcholine)
  YFP fluorescence quenching (percent quench): −3.75%
30 uM CNL002
  YFP fluorescence quenching (percent quench): 80.97%
30 uM azd0328
  YFP fluorescence quenching using AZD-0328 (percent quench): 82.08%
100 uM ach (acetylcholine)
  YFP fluorescence quenching (percent quench): −1.6%
1 mM ach (acetylcholine)
  YFP fluorescence quenching (percent quench): 71.65%
3 mM ach (acetylcholine)
  YFP fluorescence quenching (percent quench): 79.09%
  YFP fluorescence quenching using Facinicline, 30 nM fac: −21.94
  YFP fluorescence quenching using Facinicline, 300 nM fac: −22.46
  YFP fluorescence quenching using Facinicline, 30 uM fac: 82.63
  YFP fluorescence quenching using TC-6987, 1 uM tc6987: −15.22
  YFP fluorescence quenching using TC-6987, 10 uM tc6987: −19.89
  YFP fluorescence quenching using TC-6987, 500 uM tc6987: −33.32
First column
  YFP fluorescence quenching using Varenicline, 3 nM var: 2.441
  YFP fluorescence quenching using Varenicline, 30 nM var: 1.275
  YFP fluorescence quenching using Varenicline, 300 nM var: 13.119
  YFP fluorescence quenching using Varenicline, 500 nM var: 11.539
  YFP fluorescence quenching using Varenicline, 1 uM var: 8.397
Second column
  YFP fluorescence quenching using Varenicline, 3 nM var: 7.326
  YFP fluorescence quenching using Varenicline, 30 nM var: 12.96
  YFP fluorescence quenching using Varenicline, 300 nM var: 2.355
  YFP fluorescence quenching using Varenicline, 500 nM var: 6.571
  YFP fluorescence quenching using Varenicline, 1 uM var: 7.309

B2: CODA409: engineered receptor: Y210W in SEQ ID NO: 33 (protein)
chain: B1 chain with F210W
modifications: synthetic sequence of chimeric LGIC
[1]
  YFP fluorescence quenching using CNL001 (percent quench): −8.914%
[2]
  YFP fluorescence quenching using CNL001 (percent quench): −14.319%
1 nM brd (TC-5619/Bradanicline)
  YFP fluorescence quenching using TC-5619/Bradanicline (percent quench): −13.45%
[3]
  YFP fluorescence quenching using TC-5619/Bradanicline (percent quench): −0.64%
[4]
  YFP fluorescence quenching using CNL001 (percent quench): −1.444%
[5]
  YFP fluorescence quenching using CNL001 (percent quench): 4.393%
10 nM brd (TC-5619/Bradanicline)
  YFP fluorescence quenching using TC-5619/Bradanicline (percent quench): 37.3%
[6]
  YFP fluorescence quenching using TC-5619/Bradanicline (percent quench): 76.36%
[7]
  YFP fluorescence quenching using CNL001 (percent quench): 11.897%
[8]
  YFP fluorescence quenching using CNL001 (percent quench): 11.434%
50 nM abt (ABT-126)
  YFP fluorescence quenching using ABT-126 (percent quench): 8.23%
[9]
  YFP fluorescence quenching using CNL001 (percent quench): 12.719%
[10]
  YFP fluorescence quenching using CNL001 (percent quench): 16.053%
100 nM CNL002
  YFP fluorescence quenching (percent quench): −14.92%
100 nM abt (ABT-126)
  YFP fluorescence quenching using ABT-126 (percent quench): 55.53%
100 nM azd0328
  YFP fluorescence quenching using AZD-0328 (percent quench): −6.57%
100 nM brd (TC-5619/Bradanicline)
  YFP fluorescence quenching using TC-5619/Bradanicline (percent quench): 72.72%
300 nM abt (ABT-126)
  YFP fluorescence quenching using ABT-126 (percent quench): 74.82%
300 nM azd0328
  YFP fluorescence quenching using AZD-0328 (percent quench): −4.84%
[11]
  YFP fluorescence quenching using TC-5619/Bradanicline (percent quench): 75.47%
500 nM abt (ABT-126)
  YFP fluorescence quenching using ABT-126 (percent quench): 77.39%
[12]
  YFP fluorescence quenching using CNL001 (percent quench): 14.077%
[13]
  YFP fluorescence quenching using CNL001 (percent quench): 15.495%
1 uM CNL002
  YFP fluorescence quenching (percent quench): −0.85%
1 uM abt (ABT-126)
  YFP fluorescence quenching using ABT-126 (percent quench): 77.77%
1 uM brd (TC-5619/Bradanicline)
  YFP fluorescence quenching using TC-5619/Bradanicline (percent quench): 78.73%
3 uM abt (ABT-126)
  YFP fluorescence quenching using ABT-126 (percent quench): 69.33%
10 uM abt (ABT-126)
  YFP fluorescence quenching using ABT-126 (percent quench): 74.79%
10 uM ach (acetylcholine)
  YFP fluorescence quenching (percent quench): −5.43%
30 uM CNL002
  YFP fluorescence quenching (percent quench): 29.62%
30 uM abt (ABT-126)
  YFP fluorescence quenching using ABT-126 (percent quench): 75.61%
30 uM azd0328
  YFP fluorescence quenching using AZD-0328 (percent quench): 81.64%
50 uM abt (ABT-126)
  YFP fluorescence quenching using ABT-126 (percent quench): 75.72%
100 uM abt (ABT-126)
  YFP fluorescence quenching using ABT-126 (percent quench): 78.52%
100 uM ach (acetylcholine)
  YFP fluorescence quenching (percent quench): 17.14%
1 mM ach (acetylcholine)
  YFP fluorescence quenching (percent quench): 78.84%
3 mM ach (acetylcholine)
  YFP fluorescence quenching (percent quench): 78.55%
  YFP fluorescence quenching using Facinicline, 30 nM fac: −10.93
  YFP fluorescence quenching using Facinicline, 300 nM fac: −5.82
  YFP fluorescence quenching using Facinicline, 30 uM fac: 57.77
  YFP fluorescence quenching using TC-6987, 1 uM tc6987: 62.82
  YFP fluorescence quenching using TC-6987, 10 uM tc6987: 78.66
  YFP fluorescence quenching using TC-6987, 500 uM tc6987: 70.35
Ligand Facinicline 10 uM
  YFP fluorescence quenching using Facinicline, 10 uM fac: 60.97
First column
  YFP fluorescence quenching using Varenicline, 3 nM var: 7.776
  YFP fluorescence quenching using Varenicline, 30 nM var: −5.568
  YFP fluorescence quenching using Varenicline, 300 nM var: 2.815
  YFP fluorescence quenching using Varenicline, 500 nM var: 1.766
  YFP fluorescence quenching using Varenicline, 1 uM var: 1.844
Second column
  YFP fluorescence quenching using Varenicline, 3 nM var: −2.964
  YFP fluorescence quenching using Varenicline, 30 nM var: 3.024
  YFP fluorescence quenching using Varenicline, 300 nM var: 3.06
  YFP fluorescence quenching using Varenicline, 500 nM var: 2.819
  YFP fluorescence quenching using Varenicline, 1 uM var: −4.059
